What all share (format): biochemical
Data set [1] concerns trastuzumab (mAb1) N297-linked sugar chain. Briefly: Hydrolysis activity on antibody sugar chain (sugar chain hydrolysis rate, fully automated electrophoresis). Particulars: 0.5 hours after initiation of the reaction; 0.1 mg mAb1, 10 ng enzyme, 37° C., pH 7.5. The protocol:
The enzyme obtained in Example 2 was measured for hydrolysis activity by the following method. At this time, EndoS was used as a comparative subject.
In sterile water (5 mL), mAb1 (60 mg) was dissolved. The solution was replaced with 50 mM Tris-HCl buffer (pH 7.5) while concentrating the solution by Vivaspin 20 (30,000 MWCO, PES, manufactured by Sartorius).
A reaction solution containing the mAb1 (0.1 mg) and 10 ng of the enzyme (total volume 50 μL) was prepared and incubated at 37° C. Each of the reaction solutions at 0.5, 1, and 2 hours after initiation of the reaction was sampled and analyzed for protein by a fully automated electrophoresis system as mentioned above. In the chromatogram obtained, an unreacted product and a hydrolysate are confirmed as discrete peaks. From the peak-area ratio between the unreacted product and the hydrolysate, the hydrolysis rate of a sugar chain was calculated in accordance with the following expression.

The subject of data set [2] is mAb1. Briefly: Evaluation of reaction temperature for hydrolysis of mAb1 sugar chain. The protocol:
The hydrolysis rates of a sugar chain with Endo-Si and EndoS at individual temperatures were measured as follows. A 50 mM Tris-HCl buffer (pH 7.5) solution (50 μL) containing 0.1 mg of mAb1 and 10 ng of Endo-Si WT or EndoS WT was prepared and incubated at each temperature of 27, 29, 31, 35, 37, 40, 43, 46, 48, and 50° C. Each of the reaction solutions at a half hour after initiation of a reaction was sampled and the hydrolysis rate of a sugar chain was calculated in accordance with the aforementioned method.

The subject of data set [3] is mAb1. Kind of data set: Evaluation of reaction pH for hydrolysis of mAb1 sugar chain. The protocol:
The hydrolysis rates of a sugar chain with Endo-Si and EndoS at individual pH values were measured as follows. A 50 mM citric acid-sodium phosphate buffer (pH 5.0 or 5.5) solution, sodium phosphate buffer (pH 6.0, 6.5 or 7.0) solution or Tris-HCl buffer (pH 7.5, 8.0, 8.5 or 9.0) solution (50 μL for each) containing 0.1 mg of mAb1, and 10 ng of Endo-Si WT or EndoS WT, was prepared and incubated at 37° C. Each of the reaction solutions at a half hour after initiation of reaction was sampled and the hydrolysis rate of a sugar chain was calculated in accordance with the aforementioned method.

Data set [4] has as its system human IgG1-4. Kind of data set: Substrate specificity in various antibodies (band shift in electrophoresis). As to conditions: 10 μg substrate, 1 μg enzyme, 37° C., pH 7.5, two hours. The protocol: The hydrolysis activities of Endo-Si, EndoS and PNGaseF on various antibodies were measured as follows. A 50 mM Tris-HCl buffer (pH 7.5) solution (50 μL) containing each of various substrates (10 μg), and 1 μg Endo-Si WT was prepared and incubated at 37° C. As the substrate, human IgG1-4, IgA, and IgE (all manufactured by Sigma Aldrich) were used. As the controls, 1 μg of EndoS WT and 500 U PNGase F PRIME (manufactured by N-zyme Scientifics) were used. Two hours after initiation of the reaction, a sample was taken from the reaction solution and analyzed for protein by a fully automated electrophoresis system mentioned above.
When a sugar chain is hydrolyzed by addition of an enzyme, the band of a protein shifts to the lower molecular weight side compared to when the enzyme was not added.

Data set [5] in a line: Substrate specificity in various 2-AB labeled sugar chains (HPLC). Particulars: 37° C., 24 hours. The protocol: The substrate specificity of Endo-Si in various sugar chains were measured as follows. A 50 mM Tris-HCl buffer (pH 7.5) solution (10 μL) containing 5 pmol of each of various sugar chains labeled with 2-AB (manufactured by Agilent Technologies) and 20 μg of Endo-Si WT, was prepared and incubated at 37° C. for 24 hours, and thereafter treated at 95° C. for 5 minutes to terminate the reaction. The reaction solution was subjected to HPLC analysis carried out under the following conditions.
[HPLC Analysis Conditions]
HPLC apparatus: 1200 Infinity LC (manufactured by Agilent Technologies)
Column: ACQUITY UPLC Glycan Amide 130 Å, 1.7 μm, 2.1×150 mm (manufactured by Waters)
Column temperature: 40° C.
Detector: Fluorescence detector RF-20Axs (manufactured by Shimadzu Corporation)
Mobile phase A: H2O+0.1% HCOOH
Mobile phase B: Acetonitrile+0.1% HCOOH
Gradient (mobile phase B %): 90% (0 minute), 40% (25 minutes)
Enzyme activity was calculated based on the peak area ratio between a substrate and a hydrolysate, GlcNAc-2AB. […] Of them, the activity on (specificity to) G0 sugar chain is the highest.

The test system of data set [6] is (Fucα1,6)GlcNAc-mAb2. Kind of data set: Transglycosylation activity with sugar chain oxazoline [N3-PEG(3)]-MSG1(9)-Ox as donor. Particulars: donor [N3-PEG(3)]-MSG1(9)-Ox (8 eq.), enzyme 1.25 μg, 28° C., pH 7.5. The protocol:
Transglycosylation activity was evaluated as follows. […] A sample was taken from each of the reaction solutions at 1, 2, 4, 6, and 24 hours after initiation of the reaction and analyzed for protein by a fully automated electrophoresis system as mentioned above. In the chromatogram obtained, an unreacted product and transglycosylated molecule, mAb2-(MSG1-N3)2 were confirmed as discrete peaks. The transglycosylation rate was calculated based on the peak-area ratio between the unreacted product and the transglycosylated molecule in accordance with the following expression.
Transglycosylation rate (%)=[[peak area of mAb2-(MSG1-N3)2-derived H chain]/{[peak area of (Fucα1,6)GlcNAc-mAb2-derived H chain]+[peak area of mAb2-(MSG1-N3)2-derived H chain]}]×100
Similarly, the transglycosylation rates of individual Endo-Si mutant enzymes at each time period for a reaction were calculated (Table 5).

B1: Endo-Si WT: endo-β-N-acetylglucosaminidase derived from Streptococcus iniae, amino acid positions 34 to 928 in SEQ ID NO: 2 (protein, listed as Streptococcus iniae)
chain: REELKMPNGLEQSIADVEAKIDALTYLSKNSKDEFKHSMYEIPSNREHKPVSPKQALQNAKKADAQAERLAKMTIPKKEELKALEGPLYGGYFRTWQDKTSDPTETNKVNSFGELPKEVDLAFVFHDYTKDYSLFWEELATKQVPKLNKQGTRVIRTIPWRFLSGADHSDISADKEKFPNTEAGNKALAKAIVDEYVYKYNLDGLDIDIERDSVPKVNDKEDPEALARTVEVFKEIGKLIGANGADKSRLLIMDTTYTAEENPLIKETAQYLNLLLVQVYGFSGENGNYLHHKNILDETSSMEGRWQGYSKYIRPEQYMVGFSFYEEKDFNNRWKDINEEDPSDPHIGEKIQGTRAERYAKWQPKTGGLKGGLFSYAIDRDGVAQPKQKTEHPELDKIVKSEYKVSKALKKLMMTDDQYQPIDQSDFPDKALRESIIKQVGTRRGDLERFKGTLRLDNPEIKDLTGLNKLKRVAKLELINLPKITKIDKDDLPQNLKPLTDNQKSNLEIKGTYDDSKLYKDIPAFDLVISGLSGLESLDISGHQRDTLSGIDASTLPSLKAINISDNHFDLAQGTENRHILDTILATLAKNGASTASFDKQKPKGLYPESYSTAPLHLQVGQGKINVIDDLIFGTRTNQNTLINTENDFEAYKEQTIQGKPFIAPDYLYDNFKVSYKEYSASIVDSTLAETTDKTIDTAKAETYQVTVSNKDGKTVHSVKVIVGDEKPMMVNLAQDAKIIGTDNMTQSAKVFDGQKDQFLLSWNKDSSVIFELKTPGTAKHWRFFDDGKNDSVTLSVFKGDASNFETEKDKAENWVEITKDSRKNDDKVFSSPLEVDNAKYLKVTIKKEAKYIYFNELQILGYPGVVAKKTADDLRPTEADKSDDKSDKNDTEAK
As to B1, the “hydrolysis rate of a sugar chain” value in data set [1] amounted to 57.4%. Also, the results for the “hydrolysis activity compared with EndoS” value in data set [2] (at individual temperatures 27 to 50° C.) and in data set [3] (at around pH 6.7 or more) were “higher hydrolysis activity than EndoS” and “higher than that of EndoS”, respectively. The “optimum reaction temperature for hydrolysis: particularly around” value in data set [2] (mAb1, pH 7.5, half hour reaction, particularly around (35° C. to 39° C.)) is “around 37 °C”. Also, the “optimum pH for hydrolysis: particularly around” value in data set [3] (mAb1, 37° C., half hour reaction, particularly around (pH 7.2 to 8.0)) is recorded as about 7.5 pH. Besides, the “hydrolysis activity on the 4 subclasses of IgG” value in data set [4] is listed as “exhibited hydrolysis activity”. The Relative activity in data set [5] (substrate 2-AB G0 (agafacto biantennary), reference regarded as 100%) is given as 100%; in data set [5] (substrate 2-AB G2 (asfato biantennary), activity against G0 sugar chain regarded as 100%), 73.2%; in data set [5] (substrate 2-AB G2F (core-fucosylated biantennary), activity against G0 sugar chain regarded as 100%) it was 50.1%; in data set [5] (substrate 2-AB G2S2 (a2,6) (sialyl biantennary), activity against G0 sugar chain regarded as 100%) it was 17.1%; in data set [5] (substrate 2-AB G3 (triantennary), activity against G0 sugar chain regarded as 100%), “Not detected”; in data set [5] (substrate 2-AB Man3, activity against G0 sugar chain regarded as 100%) it was 7.2%. The Relative activity in data set [5] (substrate 2-AB Man 5, activity against G0 sugar chain regarded as 100%) stood at 1.9%; in data set [5] (substrate 2-AB Man6, activity against G0 sugar chain regarded as 100%), 6.6%; in data set [5] (substrate 2-AB Man8, activity against G0 sugar chain regarded as 100%) it was 5.2%; in data set [5] (substrate 2-AB Man9, activity against G0 sugar chain regarded as 100%) it was 3.3%. Besides, the Transglycosylation rate in data set [6] (1 h), in data set [6] (2 h), in data set [6] (4 h), in data set [6] (6 h) and in data set [6] (24 h) was 0.0% in each case.

The values are drawn from patent publication US20240336907A1, “NOVEL ENDO-ß-N-ACETYLGLUCOSAMINIDASE” (priority 2020, published 2024).
